Columns and labels:
[1] = Dosing regimen model: required bioavailability for ingestible device (Tables 16, 17); conditions: for Eff Dose: approved dose x bioavailability of the approved route (Table 16)
[2] = in vivo, sc; cited from earlier work

Row | Molecule | Eff Dose [1] [mg] | Bio Avail (Approved Dosing Info) [2] [%] | Eff. Dose ([1]; baseline dose x bioavailability, SC (Table 17), assumed weight 70 kg) [mg] | Bioavail. (Baseline dose) [2] [%]
1 | pegfilgrastim (protein, UniProt P09919 31-207, looked up, N-terminal Met; PEG) Granulocyte …: TPLGPASSLPQSFLLKCLEQVRKIQGDGAALQEKLVSECATYKLCHPEELVLLGHSLGIPWAPLSSCPSQALQLAGCLSQLHSGLFLYQGLLQALEGISPELGPTLDTLQLDVADFATTIWQQMEELGMAPALQPTQGAMPAFASAFQRRAGGVLVASHLQSFLEVSYRVLRHLAQP | 4.2 | 70 | – | –
2 | concizumab (antibody, chains of the INN, looked up, V domains shown) VH: EVQLVESGGGLVKPGGSLRLSCAASGFTFSNYAMSWVRQTPEKRLEWVATISRSGSYSYFPDSVQGRFTISRDNAKNSLYLQMNSLRAEDTAVYYCARLGGYDEGDAMDSWGQGTTVTVSS VL: DIVMTQTPLSLSVTPGQPASISCKSSQSLLESDGKTYLNWYLQKPGQSPQLLIYLVSILDSGVPDRFSGSGSGTDFTLKISRVEAEDVGVYYCLQATHFPQTFGGGTKVEIK | – | – | 16.3 | 93.0
3 | emicizumab (antibody, chains of the INN, looked up, V domains shown) VH: QVQLVQSGSELKKPGASVKVSCKASGYTFTDNNMDWVRQAPGQGLEWMGDINTRSGGSIYNEEFQDRVIMTVDKSTDTAYMELSSLRSEDTATYHCARRKSYGYYLDEWGEGTLVTVSS VL: DIQMTQSPSSLSASVGDRVTITCKASRNIERQLAWYQQKPGQAPELLIYQASRKESGVPDRFSGSRYGTDFTLTISSLQPEDIATYYCQQYSDPPLTFGGGTKVEIK VH2: QVQLVESGGGLVQPGGSLRLSCAASGFTFSYYDIQWVRQAPGKGLEWVSSISPSGQSTYYRREVKGRFTISRDNSKNTLYLQMNSLRAEDTAVYYCARRTGREYGGGWYFDYWGQGTLVTVSS VL2: DIQMTQSPSSLSASVGDRVTITCKASRNIERQLAWYQQKPGQAPELLIYQASRKESGVPDRFSGSRYGTDFTLTISSLQPEDIATYYCQQYSDPPLTFGGGTKVEIK | 89.3 | 85 | – | –
4 | evolocumab (antibody, chains of the INN, looked up, V domains shown) VH: EVQLVQSGAEVKKPGASVKVSCKASGYTLTSYGISWVRQAPGQGLEWMGWVSFYNGNTNYAQKLQGRGTMTTDPSTSTAYMELRSLRSDDTAVYYCARGYGMDVWGQGTTVTVSS VL: ESALTQPASVSGSPGQSITISCTGTSSDVGGYNSVSWYQQHPGKAPKLMIYEVSNRPSGVSNRFSGSKSGNTASLTISGLQAEDEADYYCNSYTSTSMVFGGGTKLTVL | 114.8 | 82 | – | –
